We go through five molecules from patent CN114904015A (JIANGSU MAIWEIKANG NEW DRUG RES AND DEVELOPMENT CO LTD, dated 2022).

The target of assay [1] is T1, 人CLDN18.2 (human CLDN18.2), expressed on the cell surface (human, UniProt P56856-2 1-261). The experiment in a line: cell-based or functional assay.
For assay [2], the target named is T1, 人CLDN18.2 (human CLDN18.2), expressed …. Description: cell-based or functional assay. This is another data set of the same source.
Assay [3] shares this target. The experiment in a line: FACS (MFI) on CHO/CLDN18.2 cells, from 5 μg/mL in 3-fold dilutions.

B1: IMAB362 (antibody, human IgG1, kappa, V domains shown)
VH: QVQLQQPGAELVRPGASVKLSCKASGYTFTSYWINWVKQRPGQGLEWIGNIYPSDSYTNYNQKFKDKATLTVDKSSSTAYMQLSSPTSEDSAVYYCTRSWRGNSFDYWGQGTTLTVSS
VL: DIVMTQSPSSLTVTAGEKVTMSCKSSQSLLNSGNQKNYLTWYQQKPGQPPKLLIYWASTRESGVPDRFTGSGSGTDFTLTISSVQAEDLAVYYCQNDYSYPFTFGSGTKLEIKR
Consider B1, for which, in assay [1], the “CDC EC50(nM), BxPC3 cells stably expressing human CLDN18.2” value is 52.2 nM; the “CDC EC50(nM), CHOK1 cells stably expressing human CLDN18.2” value worked out at 30.4 nM; the “CDC EC50(nM), NCI-N87 cells stably expressing human CLDN18.2” value was determined as 474 nM. In addition, in assay [2], the “ADCC reporter (Jurkat FcγRIIIa-FcεRIaγ / NFAT-luciferase) EC50(nM), target-expressing BxPC3 cells” value amounted to 0.106 nM; the “ADCC reporter (Jurkat FcγRIIIa-FcεRIaγ / NFAT-luciferase) EC50(nM), target-expressing CHOK1 cells” value was found to be 0.593 nM; the “ADCC reporter (Jurkat FcγRIIIa-FcεRIaγ / NFAT-luciferase) EC50(nM), target-expressing NCI-N87 cells” value was found to be 0.0909 nM.

B2: 8k13-hz35 (antibody, IgG1, V domains shown)
VH: EVQLVQSGAEVKKPGSSVKVSCKASGYAFSNYWMNWVRQAPGQGLEWMGQIYPGSGDTKYSGKFQSRVTITADKSTSTAYMELSSLRSEDTAVYYCARFYYGNVMDYWGQGTLVTVSS
VL: DIVLTQSPDSLAVSLGERATINCKSSQTLLSGGNQKNYLTWYQQKPGQPPKLLIYWASTRESGVPDRFSGSGSGTDFTLTISSLQAEDVAVYYCQQGYSYPLTFGQGTKLEIK
notes: Humanised IgG1 / kappa; also called 本发明的裸抗-2; hz8k13-hz35; not shown: human kappa light chain constant region
B2: the binding result in assay [3] is listed as “binds”.

B3: 16k15-hz35 (antibody, IgG1, V domains shown)
VH: EVQLVESGGGLVQPGGSLRLSCAGSGITLSTYAMSWVRQAPGKGLEWVSSIISGGITYYLDSVKGRFTISRDNAKNTLYLQMNSLRAEDTAVYYCARKYHGNALDYWGQGTLVTVSS
VL: DIVMTQSPDSLAVSLGERATINCKSSQSLLSSGNQRNYLTWYQQKPGQPPKKLIYWASTRESGVPDRFSGSGSGTDFTLTISSLQAEDVAVYYCQQNYFYPLTFGQGTKLEIK
notes: Humanised IgG1 / kappa; also called 本发明的裸抗-1; not shown: human kappa light chain constant region
With B3, in assay [3], the binding result is given as “binds”.

B4: 16k15-hz22 (antibody, V domains shown, not shown: large carriers)
VH: EVQLVESGGGLVQPGGSLRLSCAGSGITLSTYAMSWVRQAPGKGLEWVSSIISGGITYYLDSVKGRFTISRDNAKNTLYLQMSSLRAEDTAVYYCARKYHGNALDYWGQGTLVTVSS
VL: DIVMTQSPDSLAVSLGERATINCKSSQSLLSSGNQRNYLTWYQQKPGQPPKKLIYWASTRESGVPDRFSGSGSGTDFTLTISSLQAEDLAVYYCQNNYFYPLTFGQGTKLEIK
As for B4, in assay [1], the “CDC EC50(nM), BxPC3 cells stably expressing human CLDN18.2” value was 12.2 nM; the “CDC EC50(nM), CHOK1 cells stably expressing human CLDN18.2” value came out at 5.2 nM; the “CDC EC50(nM), NCI-N87 cells stably expressing human CLDN18.2” value was found to be 17.4 nM. In assay [2], the “ADCC reporter (Jurkat FcγRIIIa-FcεRIaγ / NFAT-luciferase) EC50(nM), target-expressing BxPC3 cells” value was determined as 0.176 nM; the “ADCC reporter (Jurkat FcγRIIIa-FcεRIaγ / NFAT-luciferase) EC50(nM), target-expressing CHOK1 cells” value is 0.712 nM; the “ADCC reporter (Jurkat FcγRIIIa-FcεRIaγ / NFAT-luciferase) EC50(nM), target-expressing NCI-N87 cells” value was found to be 0.0677 nM.

B5: 8k13-hz24 (antibody, V domains shown, not shown: large carriers)
VH: QVQLVQSGAEVKKPGSSVKVSCKASGYAFSNYWMNWVRQAPGQGLEWMGQIYPGSGDTKYSGKFQSRVTITADKSTNTAYMELSSLRSEDTAVYYCARFYYGNVMDYWGQGTLVTVSS
VL: DIVLTQSPDSLAVSLGERATINCKSSQTLLSGGNQKNYLTWYQQKPGQPPKLLIYWASTRESGVPDRFSGSGSGTDFTLTISSLQAEDLAVYYCQQGYSYPLTFGQGTKLEIK
Take B5: in assay [1], the “CDC EC50(nM), BxPC3 cells stably expressing human CLDN18.2” value is 28.5 nM; the “CDC EC50(nM), CHOK1 cells stably expressing human CLDN18.2” value came to 21.3 nM; the “CDC EC50(nM), NCI-N87 cells stably expressing human CLDN18.2” value was found to be 57.7 nM. In addition, in assay [2], the “ADCC reporter (Jurkat FcγRIIIa-FcεRIaγ / NFAT-luciferase) EC50(nM), target-expressing BxPC3 cells” value worked out at 0.304 nM; the “ADCC reporter (Jurkat FcγRIIIa-FcεRIaγ / NFAT-luciferase) EC50(nM), target-expressing CHOK1 cells” value stood at 0.589 nM; the “ADCC reporter (Jurkat FcγRIIIa-FcεRIaγ / NFAT-luciferase) EC50(nM), target-expressing NCI-N87 cells” value was 0.15 nM.
